# Measurements from the nanobody polyreactivity screen of Harvey et al. (2022).
# Experiment: yeast display, Sf9 membrane polyspecificity reagent, FACS + sequencing; frameworks hold sequencing errors
# Outline: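 A synthetic nanobody library was expressed on Saccharomyces cerevisiae BJ5465 by galactose induction for 36–48 hours. The library was stained for 1 hour at 4 °C with 10% biotinylated, detergent-solubilized Sf9 membrane reagent and enriched with streptavidin microbeads before FACS. Low and high (top ~1%) gates were set on anti-HA fluorescence for expression and streptavidin fluorescence for reagent binding, and each polyreactivity label reflects the gate of origin.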
row,Sequence,polyreactivity (PSR sort gate)
1,QVQLVESGGGLVQAGGSLRLSCAASGSIFDSNAMGWYRQAPGKETELVASITSDGDTYYADSVKGRFTISRDNAKNTVYLQIKSVKPEDTAVYYCAAYVPYSGLDYWGQGTQVTVSS,low polyreactivity
2,QVQLVESGGGLVQAGGSLRLSCAASGRIFDYNTMGWYRQAPGKERELVAAITGGTGSTYYADSVKGRFTISRDNAKNTVYLQMNSLKPEDTAVYYCAAGFHKRVSPEILYDYWGQGTLVTVSS,low polyreactivity
3,QVQLVESGGGLVQAGGSLPLSCAASGRTFYYYAMGWYRQAPGKERELVAAISWSGGRTYYADSVKGSFTISRDNAKNTVYLQMNSLKPADTAVYYCNAEPPRGYTVSSGGEMDYWGQCTQVTVSS,low polyreactivity
4,QVQLQESGGGLLQAGGSLRLSCAASGTIFRFRYMGWHRQAPGKERELVAGINGGTTTYYADSVIGRFTISRDNAKNTVYLQMNSLKPDDTAVYNCAAGASRLTYYDYWGQGTQVTVSS,low polyreactivity
5,QVHLVESGGGLVQAGGSLRLSCAASGFIFSYYAMGWYRQAPGKERELVAAISWTGGSTYYADSVKGRFTISRDNAKNTVYLQMNSLKPEDTAVYYCNKYYRAWLLWDYGYWGQGTQVTVSS,high polyreactivity
6,QVQLVESGGGLVQAGGSLRLSCAASGRTFRWNAMGWYRQAPGKERELVARISWRGGSTYYADSVKGRFTISRDNAKNTVYLQMNSLKPEDTAVYYCAATSPYYRTGYDYWGQGTQVTVSS,high polyreactivity
7,QVQLVESGGGLVQAGGSLRLSCAASGSLFYPYAMGWYRQAPGKERELVAAIDLSGGSTYYADAVKGRFTISRDNAKNTVYLQMNSLKPEDTAVYYCAADYGYTYAYDYWGQGTQVTVSS,low polyreactivity
8,QVQLVESGGGLVQAGGSLRISCAASGRTFGPYAMGWYIQAPGKEREFVAAISYSGGSTYYADSVKGRFTISRDNAKNTVYLQMNSLKPEDTAVYYCAVDIDSNSGTRDYWGQGTQVTVSS,low polyreactivity
9,QVQLVESGGGLVQAGGSLRLSCAASGSILHLYAMGWYRQAPGKERELVARINSGGTTNYADSVKGRFTISRDNAKNTVYLQMNSLKPEDTAVYYCAARFTPFITSDDGHYDYWGQGTQVTVSS,low polyreactivity
10,QVQLVESGGGLVQAGGSLRLSCAASGRNFNKNAMGWYRQAPGKERELVAAITDRGGSTNYADSVKGRFTISRDNAKNTVYLQMNSLKPEDTAVYYCNTGRKLVYRYPGYDYWGQGTQVTVSS,low polyreactivity
11,QVQLVESGGGLVQAGGSLRLSCDASGRIFLTNAMAWYRQAPGKERELVAAITSGVSTYYADSVKGRFTISRDNAKNTVYLQMNSLKPEDTAVYYCNADTDRYWPYEYDYWGQGTQVTVSS,low polyreactivity
12,QVQLVESGGGLVQEGGSLRLSCAASGFIFLYYAMGWYRQAPGKERELVASINRVGSTYYADSVKGRFTISRDNAKKTVYLQMNSLKPEVTAVYYCNARWIGRLTPYRRATYNYWGQVTQVTVSS,high polyreactivity
13,QVQLVESGGGLVQAGGSLRLSCAASGITFRWYAMGWSRQAPGKERELVAAIDGGGSTYYADSVKGRFTISRDNAKNTVYLQMNSMKPEDTAVYYCAADYGRRYHTPYGWDYYYWGQGTQVTVSS,high polyreactivity
14,QVQLVESGGGLVQAGGSLRLSCAASGSTFYRNAMGAYRQAPGKDREFVAAISFRGGGTYADSVKGRCTISRDNANNTVYLQMNSLKPEDTAVYYCAADHLSYRRRYEYWGQGTQVTVSS,low polyreactivity
15,QVQLVESGGGLVQAGGSLRLSCAASGSTFDVYAMGWYRQAPGKERELVAAIDVRDSTTYYADSVKGRFTISRDNAKNTVYLQMNSLKPEDTAVYYCAAEADIEYGDDDYWGQGTQVTVSS,high polyreactivity
16,QVQLVESGGGLVQAGGSLRLSCAASGSIIRYNAMGWYRQAPGKERELVAAITKGAGSTYYADSVKGRFTISRDNAKNTVYLQMNSLKPEDTAVYYWNKARGSGHTYYSWGLGTQVTVSS,high polyreactivity
17,QVQLVESGGGLVQAGGSLRLTCAASGRIFGWYAMGWYRQAPGKEREFVAAITVTGGSTYYADSVKGRFTISRDNAKNTVYLQMNSLKPEDTAVYYCAADRWYTRTGFDYWGQGTQVTVSS,low polyreactivity
18,QVQLHESGGGLVQAGGSLRLSCAASGTISYAGPIGWYRQAPGKEREFVAGIGVCSNTNYADSVKGRYTIIRDNAKNTVYLQMNSLKPEDTAVYYCAAETDSWVGGYSYASLDYWGQGTQVTVSS,low polyreactivity
19,QVQLVESGGGLVQAGGSLRVSSAASGRIFYLYVMAWYRQAPGKERELVAGITGSGGNTYYADSVKGRCTISRDNAKNTVDLQMNSLKPEDTAVYFCNDRFRARPRMGYWGQATQVTVSS,high polyreactivity
20,QVQPQESGGGLVQAGGSLRLSCAASGTIFAFQTMGWYRQAPGKERELVASITYGSSTNYADSVKGRFTISRDNAKNTVYLQMNSLKPEDTAVYYCAVPQAQYYYDYWGQGTQVTVSS,high polyreactivity
21,QVQLVESGGGLVQAGGSLRLSGAASGRIFDIYAMGWYRQAPGKERELVAGITSVGSTNYADSVKGRFTISRDYAKNTVYLQMNSLKPEDTAVYYCAADTSVHSEVDYGGQGTQVTVSS,low polyreactivity
22,QVQLVESGGGLVQAGGSLRLSCAASGRTFVIYAMGWYRQAPGKEREFVAAISRSGGSTYYADSVKGRFTISRDNAKNTVYLQMNSLKPEDTAVYYCNTRTPYWVKSDYWGQGTQVTVSS,low polyreactivity

row,Sequence,polyreactivity (PSR sort gate)
1,QVQLVESGGGLFQAGGSLRLSCAASGRIFYYNTMGWYRQAPGIERELVAGISTRGGRTYYADSVKGRFTISRDNAKNTVYLQMNSLKPEDTAVYYCAKQYGSYGRYYKYYYWGQGTQLTVSS,high polyreactivity
2,QVLLVESGGGLVQAGGSLRVSCAASGRTFGGYGMGWYRQAPGKDRELVASISFSGGAGTYYADSVKGRFTISRDNATTPVYLQMNSLKPEDTAVYYCAKRYVTPTYRRYSWGQGTQETVSS,high polyreactivity
3,QVQLVESGGGLVQAGGSLRLSCDASGAIFFSYAMRSYREAPGKERELVATITAGGGSTNYADSVKGRFTISRDNAKNTVYLQMNSLKAEDTAVYYSAAKRLSWHRYGYWGQGSQVTVSS,low polyreactivity
4,QVQLVESGGGLVQAGGSLRLSCAASGSIFRVYAMGWYRQAPGKERELVAAISRGGGTTYYADSVKGRFTISRDNAKNTVYLQMNRLKPEDTAVYYCASEYLGYYYQFDSWGQGTQVTVSS,high polyreactivity
5,QVQHVESGGGLVQAGGSLRLSCAASGRTFYRNAMGWSRQAPGKELELVAAITRSGGSTYYADSVKGRFTTSRDNAKNTVYLQMNSLQPEDTAVYYCARRLYPYRPTPYDYWGQGTQVTVSS,low polyreactivity
6,QVQLVESGGGLVQAGGSLRLSCAASGRTFLYYAMGWYRQEPGKERELVAAITGRGGSTYNADSVKGLFTISRDNAQNTVYLKMNILKPEDTAVYYCAARDNWIRRDGYWGQGTQVTVSS,high polyreactivity
7,QVKLVESGGGLVQAGGSLRLSCAASGNILGYNAMGWYRQEPGKERELVAAITQSGGSTYYADSVKGRFTISRDNAKYSVYLQMTSLKPEDTAVYDCAVDCGPFYDPFGYWGQGTQVTVSS,low polyreactivity
8,QDQHVESGGGLVQAGGSLRLSCAASGTIFSYYAMGWYRQAPGKERELVASISWKGTSTYYADSVKGRFTISRDNSKNTVYLQMNSLKPEDTAVYYCNVRFNYRGTYDYWGQGTQVTVSS,low polyreactivity
9,QVQLVESGGGLVQAGGSLRLSCAASGLIFIAYAMGWYRQAPGKEREFVAAITWNGVSTYYADSVKGRFTISRDNAKNTVYLQMNSLKPEDTAVYYCNADYVFSPWAYEYWGQGTQVTVSS,high polyreactivity
10,QVQLVESGGGLVQAGGSLRLICAASGFTFPVYARGWYRQAPGKERELVAAISSSGGTTYYADSVKGRFTISRDNAKNTVYLQMISLKPEDTAVYYCNAYYGSTAYGYDYWGQGTQVTVSS,low polyreactivity
11,QVQLVESGGGLVQAGGSLRLSCAASGFTFKYYAMGWYRQAPGKERELVAAIRRSAGSTNYADSVKGRFTISRDNAKNTVYLQMNSLKPEDTAVYYCNTVGTRQPMDYWGQGTLVTVSS,high polyreactivity
12,QVQLVESGGGLVQAGGSLRLSCAASGITFETYALGWSRQAPGKERELVASIDYDGTSTYYADSVKGRFTISRDNAKNTVYLQMNSLKPEDTAVYYCNARDLDNYGWDDEEYDYWGQGTQVSVSS,low polyreactivity
13,QVQLVESGGGLVQAGGSRRLSCAASGLIYWYAMGWYRQAPGKERELVAAISSNGGSTYYADSVKGRFTISRDNAKNTVYLQMNSLKPEDTAVYYCAVTSFGYSVLERDYWGQGTQVTVSS,low polyreactivity
14,QVQLVESGGGLVQAGGSLRLSCAASGSILDYKVMGWYRQPPGKERELVAAIRGGGSTYYADSVKGRFTISRDNAKNTVYLQMNSLKPEVTAVYYCAKDSQTARDFDYWGQGTQVTVSS,low polyreactivity
15,QVQLVESGGRLVQAGGSLRLSCAASGRILPGNAMGWYRQAPGKEREFVAAISYSGGRTYYADSVKGRFTISRDNAKNNVYLQMNSLKPEDTAVYSCAARSYGSAYYYWGQGTQVTVSS,high polyreactivity
16,QVQLVESGGGLVQAGCSLRISCAASGRTFSVYTMGWYRQAPGKERELVAAIRGRGGSTYYADSVKGRFTISRDNAKIPVYLQMNSLKPEDTAVYYCAARASIFGATFDYWGQGTQVTVSS,high polyreactivity
17,QVQLVESGGGLVQAGGSLRLSCAASGFIFFYYAMGWYRQAHGKERELVAAISASGGSTYYADSVKGRFTISRDNAKNTVYLQMNSLKPEDTAVYYCATDPISRARLYGQRDYWGQGTQVTVSS,high polyreactivity
18,QVQLVDTGAGLVQAGGSLRISCAPSGNIFVDNVMGWYRQAPGKERELVAAIDYSGGSTYYADSVKGRFTISRDNAKNNVYLQMNSLKPEDTAVYYCNARTYYGFGMDFWGQGTQVTVSS,low polyreactivity
19,QVQLVESGGGLVQAGGSLRLSCAASGRIFPRYVMGWYRQAPGKERELVAAITYRGGSTSYADSVKGRFTISRDNAKNTVYLQMNSLKPEDTAVYYCNAKSLYYNYAYDYWGQGTQVTVSS,high polyreactivity
20,QVQLVESGGGLVQAGGSLRLSCAASGFTYGSNAMGWYRQAPGKERELVATISRRGGRTYYADSVKGRFTISRDNAKNTVYLQMNSLKPEDTAVYYCAADRSRPGYDYWGQGTQVTVSS,high polyreactivity
21,QVHLEESGGGLVQAGGSLRLSCAASGGTILAYAMGWYRQAPGKERELVAAITRRGTRTYYADSVKGRFTISLDNAKNTVYLQMNSLKPEVTAVFYCAVSGGFYWGQGTQVTVSS,high polyreactivity
